Experimental data reported in PMC12251660, “The Structural Deciphering of the α3 Helix Within ZmHsfA2’S DNA-Binding Domain for the Recognition of Heat Shock Elements in Maize”.

Target: ZmHsf17 (Zea mays, UniProt A0A5J6CYG6 1-373)
Assay: EMSA; EMSA/Gel-Shift buffer (Beyotime GS009; composition, salt and pH not stated), 10 uL, 25 C 30 min; 6% native PAGE in 0.5x TBE at 4 C
Conditions: protein: recombinant; tags: 6xHis (stated C-terminal; pET-30a); chain copies: 3; label: biotin; blunt

ZmHsf17, sequence (A0A5J6CYG6 entry or part of it): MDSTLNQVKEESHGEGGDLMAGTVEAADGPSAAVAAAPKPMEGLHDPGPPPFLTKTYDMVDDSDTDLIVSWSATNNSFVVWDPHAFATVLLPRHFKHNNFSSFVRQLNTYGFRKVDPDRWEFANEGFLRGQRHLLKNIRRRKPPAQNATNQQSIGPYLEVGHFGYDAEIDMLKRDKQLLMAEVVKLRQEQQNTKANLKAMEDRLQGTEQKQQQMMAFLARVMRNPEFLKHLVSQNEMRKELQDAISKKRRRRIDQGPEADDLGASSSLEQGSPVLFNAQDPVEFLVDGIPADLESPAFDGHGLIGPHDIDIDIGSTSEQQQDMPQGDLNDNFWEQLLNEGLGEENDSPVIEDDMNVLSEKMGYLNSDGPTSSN

B1: ZmPAH1-HSE2 (dsDNA)
DNA 1: CAGCGTCACATGACGGGAATTTTCACGTCTTTTCAGCCCT
DNA 2: AGGGCTGAAAAGACGTGAAAATTCCCGTCATGTGACGCTG
B1: binds.

B2: ZmPAH1-HSE1-HSE2R16 (dsDNA)
DNA 1: TCTTCGAATTGCATAGGAAACTTCACGTCTTTTCAGCCCT
DNA 2: AGGGCTGAAAAGACGTGAAGTTTCCTATGCAATTCGAAGA
B2: binds.

B3: ZmPAH1-HSE1-HSE2M2 (dsDNA)
DNA 1: TCTTCGAATTGCATAGGAATTTTCGTTCGAACGCATTCTG
DNA 2: CAGAATGCGTTCGAACGAAAATTCCTATGCAATTCGAAGA
B3: no binding.

B4: ZmPAH1-HSE1 (dsDNA)
DNA 1: TCTTCGAATTGCATAGGAAACTTCGTTCGAACGCATTCTG
DNA 2: CAGAATGCGTTCGAACGAAGTTTCCTATGCAATTCGAAGA
B4: no binding.

B5: ZmPAH1-HSE1-HSE2L16 (dsDNA)
DNA 1: CAGCGTCACATGACGGGAATTTTCGTTCGAACGCATTCTG
DNA 2: CAGAATGCGTTCGAACGAAAATTCCCGTCATGTGACGCTG
B5: binds.
